Results reported in patent US20130144035A1, “COMPOSITIONS AND METHODS FOR LEUKOCYTE-TARGETING MULTI-VALENT IMAGING PROBES” (priority 2010, published 2013).
Read-outs that look alike come from different tables or passages of the source. Square brackets hold non-standard residues; d marks the D form. Peptide text beside a SMILES is read from it. * marks the point of attachment. PEG12 = NCCOCCOCCOCCOCCOCCOCCOCCOCCOCCOCCOCCOCCC(=O)O; PEG4 = NCCOCCOCCOCCOCCC(=O)O; HYNIC = NNc1ccc(C(=O)*)cn1; X1 = O=C(/C=C/c1ccccc1)*

Experiments:
[1] = system: isolated human neutrophils (formyl peptide and tuftsin receptors); experiment: Neutrophil binding, saturation assay; conditions: for Kd: TNF-α treated human neutrophils, 25° C., 90 min, saturation assay
Procedure: Human tumor necrosis factor-α (TNF-α) was procured from Perpotech, and fMLF was purchased from Sigma. Aliquots of both samples were taken (TNF-α, 10 U/mL, and fMLF, 10 mM) and stored at −20° C. For every assay the solutions were thawed to ambient temperature and freshly diluted with […] (HA) buffer before use. Multiscreen high-throughput screening (HTS) with glass fiber filter (FC) 96-well plates, type C, with […] glass filters were purchased from Millipore. Filtration from 96-well plates was performed under vacuum on a Brandel filtration device. The membranes from each well were collected by punching with the Millipore Multiscreen punching instrument. The radioactivity from ^99mTc-bound ligand was measured with either Minaxi (Packard), Autogamma 5000 series (Packard), or Wallac 1420 Wizard (Perkin-Elmer) γ-counters. Radioactivity was measured for 1 min per sample and was not corrected for decay.
Human neutrophils were prepared from normal heparinized (10 U/mL) venous blood by a 1-step Ficoll-Hypaque separation procedure (15, 16), yielding approximately 98% neutrophils; greater than 95% viable as determined with trypan blue containing less than 50 pg/mL of endotoxin. After separation, neutrophils were washed with Hank's balanced salt solution with heparin (10 U/mL) 3 times. After the third wash, neutrophils were resuspended in HA buffer, which was Hank's balanced salt solution supplemented with 0.1% human albumin (Bayer Healthcare). Neutrophil experiments were completed in HA buffer.
Freshly isolated human neutrophils (4×10^6 cells/mL) were treated with TNF-α(10 U/mL, Peprotech) twenty minutes prior to binding studies and transferred to a 96 well plate (Multiscreen® HTS FC by Millipore, Billerica, Mass. 1.2 μm glass filter type C, 50.0 μL, 2.0×10^5 cells/well). […] The bounded radioactivity remaining on the membranes was measured in a gamma counter. Specific binding was calculated as the difference between total binding and nonspecific binding at the highest concentration. […]

[2] = Partition coefficient (octanol/water); type: physicochemical; conditions: average of three measurements
Procedure: Freshly HPLC purified cFLFLF-PEGn-KTKPPR-^99mTc 8 or 9 (˜350 kBq) in 500 μL of water was mixed with 500 μLof octanol in an Eppendorf microcentrifuge tube. The tube was sonicated for […] and then centrifuged at 4,000 rpm for […] (Fisher Scientific Marathon Micro-A). Aliquots (100 μL) of octanol and aqueous layers were carefully separated and radioactivity of samples were counted. Log P is derived as the log of the ratio of radioactivity in octonol to radioactivity in water. The measurement was repeated in triplicate and data presented is the average of three measurements.

Blood clearance = type: in vivo; conditions: mouse, whole blood, intravenous, control mice (n=3), tail vein injection, mono-exponential clearance; read-out: elimination half-life for blood clearance (T1/2)
Procedure: Blood kinetics of cFLFLF-PEG12-TKPPR-^99mTc was studied in 3 control (non-inflamed) mice. Approximately 50 μL of blood from the contralateral tail vein were collected in capillary tubes at 15, 30, 45, 60, 120, and 180, 360 min after tracer injection (0.37-0.74 MBq). The capillary tubes were placed in a vial that was weighed beforehand and afterward. Activity in each blood sample was measured in a radioisotope calibrated well counter (CRC-15W, Capintec, Inc, NJ), decay corrected back to the time of tracer injection, normalized for injected dose and animal body weight, and expressed as % ID/g of blood.

Serum stability = type: in vitro ADME; conditions: fetal bovine serum
Procedure: Fifty microcuries of the cFLFLF-PEG12-TKPPR-^99mTc was added in to 100 μL of fetal bovine serum (Invitrogen, Grand Island, N.Y.). After incubation at 37° C. for 1, 3, and 6 hrs, aliquots of the mixture was filtered through a […] micro spin filter. The filtrates were analyzed by reverse-phase HPLC with a Bioscan Flow Count Radio-HPLC detector. All of newly formed γ-peaks besides the original cFLFLF-PEG12-TKPPR-^99mTc peak would be considered as degraded products.

Biodistribution = type: in vivo; conditions: normal mice, 18 hours post injection
Procedure: Body distribution of radioactivity was determined in control (n=3) mice 18 h after injection of tracer. After a single blood sample had been taken from the tail vein, mice were euthanized by deep halothane anesthesia. The organs and tissues (ear, heart, lungs, muscle, bone, liver, kidney, spleen, small intestine, and stomach) were collected, rinsed with PBS, wiped with filter paper and weighed in a pre-weighed vial. The radioactivity of each sample was measured in a γ-well counter and decay-corrected back to the time of tracer injection. Biodistribution values are expressed as a percentage of the injected dose (% ID) and normalized by body and organ/tissue mass.

[3] = system: PMA-induced ear inflammation (neutrophil accumulation); experiment: SPECT/CT imaging in mouse ear inflammation model (PMA); type: in vivo; conditions: 27 hours after PMA challenge, 3 hours post injection
Procedure: A female FVB mouse, 5 month old, with left ear inflammatory lesion was used to preliminarily assess the ability of the cFLFLF-PEG12-TKPPR-^99mTc to detect inflammation as a result of neutrophils migration and accumulation. The animal model is similar to that described by Gross et al. (19). Topical application of PMA (2.5 μg in 20 μl DMSO) onto the left earlobe induces acute dermatitis, manifested by local swelling, erythema and infiltration of neutrophils (20, 21). The right ear served as control and received only DMSO (vehicle). The SPECT/CT imaging was correlated with myeloperoxidase (MPO) activity determined by non-invasive bioluminal-bioluminescence imaging (19).
Twenty-four hours after PMA challenge, 3.7 MBq […] of cFLFLF-PEG12-TKPPR-^99mTc in 200 μl of saline was administered via tail vein. […] All SPECT images were corrected for radioactivity decay but not for gamma ray attenuation.
Co-registration of SPECT and CT images was performed using ASIPRO software (Siemens Medical Solutions USA, Inc., Knoxyille, Tenn.) and a transformation matrix previously obtained with a dual modality phantom. To characterize the accumulation of the tracer in the ears, volume-of-interest (VOI) analysis was performed to identify the number of detected counts originating in the ears. […] This activity was expressed as percentage of the injected dose per mouse body mass (% ID/g).

[4] = mouse, in vivo; cited from earlier work
[5] = mouse, in vivo; cited from earlier work; remark: listed apart in the source

Molecule	Kd [1] [nM]	fold less potent than compound 9 ([1]; binding to human neutrophils, ratio of Kd)	logP [2]	half-life (Blood clearance) [h]	stable in serum (Serum stability; 37° C.)	fragments of 99mTc labeled peptide by HPLC analysis of serum samples (Serum stability; 37° C., 1, 3, and 6 hours)	blood retaining (Biodistribution) [% ID]	liver uptake (Biodistribution) [% ID]	accumulation of the tracer in the infected ear (left) vs. control ear [3]	circulation time (T1/2) [4] [h]	blood retaining [5] [% ID]	liver uptake [5] [% ID]
CC(C)C[C@@H](NC(=O)[C@H](Cc1ccccc1)NC(=O)[C@@H](CC(C)C)NC(=O)[C@H](Cc1ccccc1)NC(=O)/C=C/c1ccccc1)C(=O)N[C@@H](Cc1ccccc1)C(=O)NCCOCCOCCOCCOCCC(=O)N[C@@H](CCCCNC(=O)c1ccc(NN)nc1)C(=O)N[C@H](C(=O)N[C@@H](CCCCN)C(=O)N1CCC[C@H]1C(=O)N1CCC[C@H]1C(=O)N[C@@H](CCCNC(=N)N)C(=O)O)[C@@H](C)O [ligand 8, cFLFLF-PEG4-TKPPR-^99mTc, metal not drawn] (X1-F[dL]F[dL]F[PEG4]K(HYNIC)TKPPR-OH)	47.8	roughly 3 fold	-0.77									
CC(C)C[C@@H](NC(=O)[C@H](Cc1ccccc1)NC(=O)[C@@H](CC(C)C)NC(=O)[C@H](Cc1ccccc1)NC(=O)/C=C/c1ccccc1)C(=O)N[C@@H](Cc1ccccc1)C(=O)NCCOCCOCCOCCOCCOCCOCCOCCOCCOCCOCCOCCOCCC(=O)N[C@@H](CCCCNC(=O)c1ccc(NN)nc1)C(=O)N[C@H](C(=O)N[C@@H](CCCCN)C(=O)N1CCC[C@H]1C(=O)N1CCC[C@H]1C(=O)N[C@@H](CCCNC(=N)N)C(=O)O)[C@@H](C)O [ligand 9, cFLFLF-PEG12-TKPPR-^99mTc, metal not drawn] (X1-F[dL]F[dL]F[PEG12]K(HYNIC)TKPPR-OH)	15.1		-0.89	~1.4	at least 6 hours	no appreciable fragments	1.2	5.3	about 3.15 folds			
cFLFLFK-PEG-^64Cu										0.917	0.2	1.5
